For assay [1], the system named is DmGPCR9. Put plainly: [35S]GTPγS binding assay, membranes of transfected CHO cells. In kind it is biochemical, Drosophila melanogaster. The settings on record: membranes from CHO cells transfected with DmGPCR9. As to the method:
(§1) The transfected cells were washed once with ice-cold Dulbecco's phosphate buffered saline (PBS), 5 ml per 10 cm plate, and scraped into 5 ml of the same buffer. Cell suspensions from multiple plates were combined and centrifuged at 500×g for 10 min at 4° C. The cell pellet was reconstituted in ice-cold TEE (25 mM TRIS, 5 mM EGTA, 5 mM EDTA). Convenient aliquots were snap-frozen in liquid nitrogen and stored at −70° C. After thawing, the cells were homogenized and centrifuged at 4° C., 500×g for 5 minutes to pellet nuclei and unbroken cells. The supernatant was centrifuged at 47,000×g for 30 minutes at 4° C. […] Membrane protein concentration was determined using the BCA Protein Assay Reagent from Pierce (Rockford, Ill.) and BSA as standard. […]
(§2) Ligand-induced stimulation of [^35S]GTPγS binding was expressed as fold increase over the basal activity with no ligand added. Each treatment was run either in triplicate, or, on occasion, in duplicate, and the binding (cpm) was calculated as means +/− standard deviations. Dose-response curves for the receptor/ligand systems were analyzed using a non-linear least square SAS model, y=Bmax X/(Kd+X). Other dose-response curves were analyzed using Prism (GraphPad Software, Inc. San Diego, Calif.) and the following equation y=Bottom+(Top−Bottom)/(1+10^LogEC50-X). […]

Assay [2] deals with DmGPCR9. In words: calcium mobilization assay (FLIPR). Conditions: given in words. Type of assay: cell-based, Drosophila melanogaster. As to the method:
(§3) Changes in intracellular calcium levels are another recognized indicator of G protein-coupled receptor activity, and such assays can be employed to screen for modulators of DmGPCR activity. For example, CHO cells stably transfected with a DmGPCR expression vector are plated at a density of 4×10^4 cells/well in Packard black-walled, 96-well plates specially designed to discriminate fluorescence signals emanating from the various wells on the plate. The cells are incubated for 60 minutes at 37° C. in modified Dulbecco's PBS (D-PBS) containing 36 mg/L pyruvate and 1 g/L glucose and one of four calcium indicator dyes (Fluo-3™ AM, Fluo-4™ AM, Calcium Green™-1 AM, or Oregon Green™ 488 BAPTA-1 AM), each at a concentration of 4 μM. […]
(§4) A calcium response is initiated by the addition of one or more candidate receptor agonist compounds, calcium ionophore A23187 (10 μM; positive control), or ATP (4 μM; positive control). Fluorescence is measured by Molecular Device's FLIPR with an argon laser (excitation at 488 nm). […] Basal fluorescence of cells was measured for 20 seconds prior to addition of candidate agonist, ATP, or A23187, and the basal fluorescence level was subtracted from the response signal. The calcium signal is measured for approximately 200 seconds, taking readings every two seconds. […]
(Calcium flux is commonly read through the fluorescence of an indicator in the cells.)

The target in a further assay is T1, Dmgpcr6bL (Drosophila melanogaster, UniProt P25931, I47L).
T1 construct: A new 5′ PCR primer was designed that incorporated the PnuFlyPep15731 start codon; expressed in transfected cells; host or cells: CHO-K1 or CHO-10001A, transient
Put plainly: calcium mobilization assay (FLIPR). In kind it is cell-based. Conditions: FaRPs tested at 10 μM, active sequences listed in Table 7 (6aL and 6bL). On the procedure: as §3, §4

Another assay has as its target T2, Dmgpcr6aL (Drosophila melanogaster, UniProt P25931, I47L).
T2 construct: A new 5′ PCR primer was designed that incorporated the PnuFlyPep15731 start codon; expressed in transfected cells; host or cells: CHO-K1 or CHO-10001A, transient
Put plainly: calcium mobilization assay (FLIPR). In kind it is cell-based. The settings on record: FaRPs tested at 10 μM, active sequences listed in Table 7 (6aL and 6bL). On the procedure: as §3, §4

For the next assay, the target named is T3, DmGPCR6a (Drosophila melanogaster, UniProt P25931, I47L).
T3 construct: expressed in transfected cells; host or cells: CHO cells, transient
Put plainly: [35S]GTPγS binding assay, membranes of transfected CHO cells. In kind it is biochemical. The settings on record: peptide tested at 5 μM. On the procedure:
as §1, §2
For orientation: GTPγS is a poorly hydrolysed GTP analogue; its binding reports G protein activation.

From US7364866B2, “Drosophila G protein coupled receptors, nucleic acids, and methods related to the same” (Pharmacia & Upjohn Company, priority 1999, dated 2008) come the findings set out here.

Non-standard residues stand in square brackets, D forms with d. No end group written: not given here. sY = N[C@@H](Cc1ccc(OS(=O)(=O)O)cc1)C(=O)O

Sequence of DmGPCR9 (as listed by the source): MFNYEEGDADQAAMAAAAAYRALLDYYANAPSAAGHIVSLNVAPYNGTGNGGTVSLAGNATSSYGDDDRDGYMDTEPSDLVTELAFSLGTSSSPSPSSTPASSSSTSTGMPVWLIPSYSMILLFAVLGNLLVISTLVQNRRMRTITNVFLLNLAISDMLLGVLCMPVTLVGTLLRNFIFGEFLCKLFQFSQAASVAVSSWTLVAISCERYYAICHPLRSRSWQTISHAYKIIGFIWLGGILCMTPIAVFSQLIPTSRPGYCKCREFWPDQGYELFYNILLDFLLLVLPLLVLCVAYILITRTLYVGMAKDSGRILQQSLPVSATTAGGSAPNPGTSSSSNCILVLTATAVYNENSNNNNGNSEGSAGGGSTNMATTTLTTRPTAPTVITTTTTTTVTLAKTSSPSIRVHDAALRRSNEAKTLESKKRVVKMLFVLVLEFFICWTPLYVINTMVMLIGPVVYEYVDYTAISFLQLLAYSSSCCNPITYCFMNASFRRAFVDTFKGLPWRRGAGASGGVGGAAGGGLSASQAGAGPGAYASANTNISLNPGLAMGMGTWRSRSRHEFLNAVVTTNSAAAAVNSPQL
T2 sequence (P25931 whole entry I47L): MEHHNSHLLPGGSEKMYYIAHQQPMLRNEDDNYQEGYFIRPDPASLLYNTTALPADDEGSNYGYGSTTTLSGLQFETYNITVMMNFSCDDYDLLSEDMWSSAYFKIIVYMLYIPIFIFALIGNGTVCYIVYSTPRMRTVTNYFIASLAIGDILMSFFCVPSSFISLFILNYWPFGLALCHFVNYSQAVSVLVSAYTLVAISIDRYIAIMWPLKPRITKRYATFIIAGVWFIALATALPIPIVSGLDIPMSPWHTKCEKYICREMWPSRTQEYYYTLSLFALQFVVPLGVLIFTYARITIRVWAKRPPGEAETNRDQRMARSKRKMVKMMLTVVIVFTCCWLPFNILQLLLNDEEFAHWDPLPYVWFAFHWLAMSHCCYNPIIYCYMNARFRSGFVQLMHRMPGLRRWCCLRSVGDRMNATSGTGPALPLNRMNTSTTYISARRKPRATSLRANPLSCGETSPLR
T3 sequence (P25931 16-464 I47L): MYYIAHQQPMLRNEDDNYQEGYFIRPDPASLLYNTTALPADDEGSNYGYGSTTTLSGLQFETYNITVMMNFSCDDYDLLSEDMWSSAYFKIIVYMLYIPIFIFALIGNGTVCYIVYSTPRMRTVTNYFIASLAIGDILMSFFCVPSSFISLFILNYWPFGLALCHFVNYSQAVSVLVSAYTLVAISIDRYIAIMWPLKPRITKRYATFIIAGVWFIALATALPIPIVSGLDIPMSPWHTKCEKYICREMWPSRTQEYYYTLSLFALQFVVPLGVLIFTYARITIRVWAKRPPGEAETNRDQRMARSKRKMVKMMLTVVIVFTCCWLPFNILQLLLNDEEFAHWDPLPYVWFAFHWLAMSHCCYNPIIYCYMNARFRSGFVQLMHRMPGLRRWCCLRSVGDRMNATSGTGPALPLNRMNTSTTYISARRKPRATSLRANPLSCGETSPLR
T1 sequence (P25931 other isoform, or with tags, fused parts or gaps I47L): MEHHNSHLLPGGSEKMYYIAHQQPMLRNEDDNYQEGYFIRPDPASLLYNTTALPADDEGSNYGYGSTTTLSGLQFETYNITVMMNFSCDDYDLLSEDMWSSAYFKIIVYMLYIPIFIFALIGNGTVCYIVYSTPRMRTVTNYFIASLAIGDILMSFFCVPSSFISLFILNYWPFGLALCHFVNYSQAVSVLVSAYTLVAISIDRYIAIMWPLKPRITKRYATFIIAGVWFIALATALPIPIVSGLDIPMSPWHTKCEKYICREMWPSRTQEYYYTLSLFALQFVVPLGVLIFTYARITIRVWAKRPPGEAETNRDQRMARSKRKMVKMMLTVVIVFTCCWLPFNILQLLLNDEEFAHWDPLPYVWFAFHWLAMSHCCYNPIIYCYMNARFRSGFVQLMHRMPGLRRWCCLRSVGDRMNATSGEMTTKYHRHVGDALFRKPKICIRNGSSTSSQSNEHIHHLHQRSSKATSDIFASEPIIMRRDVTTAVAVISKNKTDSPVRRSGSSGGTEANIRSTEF

As to “FDDY(SO3H)GHLRF-NH2 (FDD[sY]GHLRF-NH2; N-terminus assumed; SMILES CC(C)C[C@H](NC(=O)[C@H](Cc1c[nH]cn1)NC(=O)CNC(=O)[C@H](Cc1ccc(OS(=O)(=O)O)cc1)NC(=O)[C@H](CC(=O)O)NC(=O)[C@H](CC(=O)O)NC(=O)[C@@H](N)Cc1ccccc1)C(=O)N[C@@H](CCCNC(=N)N)C(=O)N[C@@H](Cc1ccccc1)C(N)=O)”, the GTPγS responses result in the assay with DmGPCR9 [1] was “no GTPγS responses”. Further, the “EC50, calcium mobilization assay” value with DmGPCR9 [2] was “low nanomolar range”.

For FLFQPQRF-NH2 [NPFF], the “Ca+2 responses (FLIPR)” value in the assay with Dmgpcr6bL and in the assay with Dmgpcr6aL was “recognized” throughout. Moreover, the “increase in GTPγS binding above the basal” value with DmGPCR6a was 4 fold.
